Experiments:
[1] = target: HLA-DQ2.5 on IHW09023 cells loaded with 33 mer gliadin peptide (human; wheat); experiment: cell-based or functional assay
[2] = target: HLA-DQ2.5 on IHW09023 cells loaded with omega1/2 gliadin peptide (human; wheat); experiment: cell-based or functional assay
[3] = target: HLA-DQ2.5 on IHW09023 cells loaded with BC hordein peptide (human; barley); experiment: cell-based or functional assay
[4] = target: HLA-DQ2.5 on IHW09023 cells loaded with gamma 1 gliadin peptide (human; wheat); experiment: cell-based or functional assay
[5] = target: HLA-DQ2.5 on IHW09023 cells loaded with gamma 2 gliadin peptide (human; wheat); experiment: cell-based or functional assay
[6] = target: HLA-DQ2.5 on IHW09023 cells loaded with gamma 3 gliadin peptide (human; wheat); experiment: cell-based or functional assay
[7] = target: HLA-DQ2.5 on IHW09023 cells loaded with gamma 4a gliadin peptide (human; wheat); experiment: cell-based or functional assay
[8] = target: HLA-DQ2.5 on IHW09023 cells loaded with gamma 4d gliadin peptide (human; wheat); experiment: cell-based or functional assay
[9] = target: T1, HLA-DQ5.1 on Ba/F3 cells (human, limits assumed); experiment: FACS, Ba/F3 cells; raw MFI
T1 construct: whole, on cells; also called Ba/F3-HLA-DQ5.1
T1 MHC II alpha: not shown
T1 MHC II beta: not shown

[10] = target: T2, HLA-DQ6.3 on Ba/F3 cells (human, UniProt P01920 33-230, limits assumed); experiment: FACS, Ba/F3 cells; raw MFI
T2 construct: whole, on cells; also called Ba/F3-HLA-DQ6.3
T2 MHC II alpha: not shown
T2 MHC II beta: not shown

[11] = target: T3, HLA-DR on Ba/F3 cells (human, UniProt P01903 26-216; P79483 30-227, limits assumed); experiment: FACS, Ba/F3 cells; raw MFI
T3 construct: whole, on cells; also called Ba/F3-HLA-DR
T3 MHC II alpha: not shown
T3 MHC II beta: not shown

[12] = target: T4, HLA-DP on Ba/F3 cells (human, UniProt P20036 29-222; P04440 30-225, limits assumed); experiment: FACS, Ba/F3 cells; raw MFI
T4 construct: whole, on cells; also called Ba/F3-HLA-DP

[13] = target: T5, HLA-DQ2.5 on Ba/F3 cells (human, UniProt P01909 24-216, limits assumed); experiment: FACS, Ba/F3 cells; %MFI with IC17dK 0 and DQN0139bb 100
T5 construct: whole, on cells; MHC class II without a fused peptide; also called Ba/F3-HLA-DQ2.5

[14] = target: T6, HLA-DQ2.2 on Ba/F3 cells (human, UniProt P01909 24-216, limits assumed); experiment: as above
T6 construct: whole, on cells; also called Ba/F3-HLA-DQ2.2
T6 MHC II alpha: not shown
T6 MHC II beta: not shown

[15] = target: T7, HLA-DQ7.5 on Ba/F3 cells (human, UniProt P01909 24-216; P01920 33-230, limits assumed); experiment: as above
T7 construct: whole, on cells; also called Ba/F3-HLA-DQ7.5

[16] = target: T8, HLA-DQ8 on Ba/F3 cells (human, UniProt P01909 24-216; P01920 33-230, limits assumed); experiment: as above
T8 construct: whole, on cells; also called Ba/F3-HLA-DQ8
T8 MHC II alpha: not shown
T8 MHC II beta: not shown

[17] = target: T9, HLA-DQ7.3 on Ba/F3 cells (human, UniProt P01909 24-216; P01920 33-230, limits assumed); experiment: as above
T9 construct: whole, on cells; also called Ba/F3-HLA-DQ7.3
T9 MHC II alpha: not shown
T9 MHC II beta: not shown

T4 sequence (P20036 29-222 limits assumed, chain 1 of 4, other chains not shown): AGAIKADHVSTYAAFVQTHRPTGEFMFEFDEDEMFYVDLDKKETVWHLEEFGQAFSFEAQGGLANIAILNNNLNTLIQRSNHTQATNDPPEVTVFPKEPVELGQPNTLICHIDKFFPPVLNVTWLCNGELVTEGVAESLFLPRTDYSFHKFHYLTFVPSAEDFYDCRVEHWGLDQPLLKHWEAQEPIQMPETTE
T4 sequence (P04440 30-225 limits assumed, chain 2 of 4, other chains not shown): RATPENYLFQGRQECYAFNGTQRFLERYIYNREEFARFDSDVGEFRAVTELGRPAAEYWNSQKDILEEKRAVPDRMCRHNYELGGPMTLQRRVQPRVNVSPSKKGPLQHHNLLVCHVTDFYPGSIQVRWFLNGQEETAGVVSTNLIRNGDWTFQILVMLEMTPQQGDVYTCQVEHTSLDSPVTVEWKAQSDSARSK

B1: DQN0344H1013/L0620//DQN0385H1353/L0681-F6 (bispecific antibody)
heavy 1: QVQLVESGGGVVQPGRSLRLSCAASGFTFSSAYWMVWVRQAPGQGLEWMGAVYGGSDTTYYAKWTEGRFTISRDTSKNTLYLQMNSLRAEDTAVYYCAREPLNYYYYGELNVWGQGTLVTVSSASTKGPSVFPLAPSSKSTSGGTAALGCLVKDYFPEPVTVSWNSGALTSGVHTFPAVLKSSGLYSLSSVVTVPSSSLGTQTYICNVNHKPSNTKVDKRVEPKSCDKTHTCPPCPAPELRRGPSVFLFPPKPKDTLMISRTPEVTCVVVDVSHEDPEVKFNWYVDGVEVHNAKTKPREEQYNSTYRVVSVLTVLHQDWLNGKEYKCKVSNKALPAPIEKTISKAKGQPREPQVYTLPPSREEMTKNQVSLTCLVKGFYPSDIAVEWESNGQPENNYKTTPPYLDSDGSFFLYSKLTVDKSRWQEGNVFSCSVLHEALHAHYTREELSLSP
light 1: DIQMTQSPSSLSASVGDRVTITCQATENIYSGLAWYQQKPGKAPKLLIYYVSTLAYGIPARFSGSGSGTDFTLTISSLEPEDFAVYYCQTYEDVSAVTFGQGTKVEIKRTVAAPSVFIFPPSDEQLKSGTAEVVCLLNNFYPREAKVQWKVDNALQSGNSEESVTEQDSKDSTYSLSSTLTLSKADYEKHKVYACEVTHQGLSSPVTKSFNRGEC
heavy 2: QVQLVESGGGVVQPGRSLRLSCAASGFTFAEWYFMSWVRQAPGKGLEWVASIDTGSGSIDYAEWVEGRFTISRDNSKNTLYLQMNSLRAEDTAVYYCARDIGIDYNFWGPGTLVTVSSASTKGPSVFPLAPSSKSTSGGTAALGCLVEDYFPEPVTVSWNSGALTSGVHTFPAVLESSGLYSLSSVVTVPSSSLGTKTYICNVNHKPSNTKVDKRVEPKSCDKTHTCPPCPAPELRRGPSVFLFPPKPKDTLMISRTPEVTCVVVDVSHEDPEVKFNWYVDGVEVHNAKTKPREEQYNSTYRVVSVLTVLHQDWLNGKEYKCKVSNKALPAPIEKTISKAKGQPREPQVYTLPPSRKEMTKNQVSLTCLVKGFYPSDIAVEWESNGQPENNYKTTPPYLDSDGSFFLYSKLTVDKSRWQQGNVFSCSVLHEALHAHYTRKELSLSP
light 2: DIQMTQSPSSLSASVGDRVTITCQTTQSISSYLNWYQQKPGQPPKLLIYYASTKAEGIPARFSGSGLGTDFTLTISSLEPEDFAVYYCHYGISKVSFGQGTKVEIKRTVAAPSVFIFPPSDEQLKSGTAKVVCLLNNFYPREAKVQWKVDNALQSGNSKESVTEQDSKDSTYSLSSTLTLSKADYEKHKVYACEVTHQGLSSPVTKSFNRGEC
IC50, α1a gliadin TCR, 250 nM 33mer gliadin [1]: 0.29 ng/mL
IC50, α1b gliadin TCR, 250 nM 33mer gliadin [1]: 1.13 ng/mL
IC50, α2 gliadin TCR, 250 nM 33mer gliadin [1]: 0.34 ng/mL
IC50, ω1 gliadin TCR, 25 µM ω1/2 gliadin [2]: 1.17 ng/mL
IC50, ω2 gliadin TCR, 250 nM ω1/2 gliadin [2]: 0.17 ng/mL
IC50, BC hordein TCR, 250 nM BC hordein [3]: 8.78 ng/mL
IC50, γ1 gliadin TCR, 250 nM γ1 gliadin [4]: 0.56 ng/mL
IC50, γ2 gliadin TCR, 250 nM γ2 gliadin [5]: 100 ng/mL
IC50, γ3 gliadin TCR, 100 µM γ3 gliadin [6]: 2.29 ng/mL
IC50, γ4a gliadin TCR, 25 µM γ4a gliadin [7]: 1250 ng/mL
IC50, γ4d gliadin TCR, 100 µM γ4d gliadin [8]: 2.06 ng/mL
binding result [9]: no binding (tested: 0.05 ug/mL)
binding result [10]: no binding (tested: 0.05 ug/mL)
binding result [11]: no binding (tested: 0.05 ug/mL)
binding result [12]: no binding (tested: 0.05 ug/mL)
binding result [13]: no binding (tested: 0.05 ug/mL)
binding result [14]: no binding (tested: 0.05 ug/mL)
binding result [15]: no binding (tested: 0.05 ug/mL)
binding result [16]: no binding (tested: 0.05 ug/mL)
binding result [17]: no binding (tested: 0.05 ug/mL)

— patent US20220089743A1 (Chugai, published 2022)
